B1: STX11 (parent)
chain: FQRAMHDYNQAEMKQRDNCKIRIQ
B2: CDC14A (parent)
chain: LWVQGDIFRSKLKNRPSSEGSINK
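Also: lentivirally expressed fusions sorted by FACS into six bins by GFP to DsRed ratio, PSI derived from sequencing read proportions per bin multiplied by bin number.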

Variants of: B1
Test: protein stability index of a GFP-peptide fusion (GPS, HEK-293T) (PSI 1-6); higher = more stable
Conditions: c terminus: a fixed tail appended
Work on FQRAMHDYLQAEMKQRDNCKIRIQ yielded a protein stability index of 2.74.
Variant FQRAMHDYIQAEMKQRDNCKIRIQ has a protein stability index of 2.25.
FQRAMHDYFQAEMKQRDNCKIRIQ gave a protein stability index of 1.83.
For FQRAMHDYNQAEMKFRDNCKIRIQ, the protein stability index was 2.01.
Work on FQRAMHDYNQAEMKWRDNCKIRIQ yielded a protein stability index of 3.09.
FQRAMHDYNQAEMKGRDNCKIRIQ showed a protein stability index of 2.45.
FQRAMNDYNQAEMKQRDNCKIRIQ gave a protein stability index of 3.3.
Work on FQRAMWDYNQAEMKQRDNCKIRIQ yielded a protein stability index of 2.43.
For FQRAMDDYNQAEMKQRDNCKIRIQ, the protein stability index was 2.92.
Variant FQRAMGDYNQAEMKQRDNCKIRIQ has a protein stability index of 2.9.
With FQRAMHDYNQAEMSQRDNCKIRIQ the protein stability index was 2.48.
For FQRAMHDYNQAEMQQRDNCKIRIQ, the protein stability index was 2.4.
FQRAMHDYNQAEMVQRDNCKIRIQ showed a protein stability index of 2.48.
FQRAMHDYNQAEMLQRDNCKIRIQ gave a protein stability index of 2.44.
Work on FQRAMHDYNQAGMKQRDNCKIRIQ yielded a protein stability index of 2.05.
Variant FQRAMHDYNQASMKQRDNCKIRIQ has a protein stability index of 2.23.
With FQRAMHDYNQALMKQRDNCKIRIQ the protein stability index was 2.42.
In the case of FQRAMHDYNQAEMKQRDNCKRRIQ, the protein stability index is reported as 3.56.
For FQRAMHDYNQAEMKQRDNCKARIQ, the protein stability index was 3.01.
For FQRAMHDYNQAEMKQRDNCKLRIQ, the protein stability index was 2.29.
FQRAMHDYNQAEMKQRDNCKIHIQ showed a protein stability index of 2.49.
In the case of FQRAMHDYNQAEMKQRDNCKITIQ, the protein stability index is reported as 2.54.
FQRAMHDYNQAEMKQRDNCKIYIQ showed a protein stability index of 2.59.
Work on FQRAMHDYNQAEMKQRDNVKIRIQ yielded a protein stability index of 2.96.
Work on FQRAMHDYNQAEMKQRDNQKIRIQ yielded a protein stability index of 2.77.
For FQRAMHDYNQAEMKQRDNAKIRIQ, the protein stability index was 2.98.
For FQRAMHDYNPAEMKQRDNCKIRIQ, the protein stability index was 2.01.
FQRAMHDYNWAEMKQRDNCKIRIQ gave a protein stability index of 1.73.
Variant FQRAMHVYNQAEMKQRDNCKIRIQ has a protein stability index of 2.15.
For FQRAMHQYNQAEMKQRDNCKIRIQ, the protein stability index was 2.24.
For FQRAMHDYNQAEMKQTDNCKIRIQ, the protein stability index was 2.67.
Work on FQRAMHDYNQAEMKQSDNCKIRIQ yielded a protein stability index of 2.41.
FQRAMHDYNQAEMKQADNCKIRIQ gave a protein stability index of 3.04.
IQRAMHDYNQAEMKQRDNCKIRIQ gave a protein stability index of 3.46.
In the case of FQRAMHDYNQAEMKQRDNCKIRIM, the protein stability index is reported as 2.69.
In the case of FQRAMHDYNQAEMKQRDNCKIRIG, the protein stability index is reported as 2.75.
Variant FQDAMHDYNQAEMKQRDNCKIRIQ has a protein stability index of 3.44.
Work on FQRAMHDYNQAEMKQRDTCKIRIQ yielded a protein stability index of 3.21.
For FQRAMHDYNQAEMKQRDHCKIRIQ, the protein stability index was 2.02.
FQRAMHDYNQAEIKQRDNCKIRIQ showed a protein stability index of 2.85.
In the case of FQRAMHDYNQAEEKQRDNCKIRIQ, the protein stability index is reported as 2.49.
FQRTMHDYNQAEMKQRDNCKIRIQ gave a protein stability index of 2.69.
With FNRAMHDYNQAEMKQRDNCKIRIQ the protein stability index was 3.61.
Work on FDRAMHDYNQAEMKQRDNCKIRIQ yielded a protein stability index of 4.2.
FQRASHDYNQAEMKQRDNCKIRIQ showed a protein stability index of 2.63.
Variant FQRANHDYNQAEMKQRDNCKIRIQ has a protein stability index of 3.1.
FQRAMHDYNQEEMKQRDNCKIRIQ showed a protein stability index of 3.22.
Work on FQRAMHDYNQREMKQRDNCKIRIQ yielded a protein stability index of 2.79.
With FQRAMHDYNQAEMKQRDNCKIRSQ the protein stability index was 2.66.
FQRAMHDYNQAEMKQRDNCKIRHQ showed a protein stability index of 2.8.
For FQRAMHDYNQAEMKQRDNCKIRMQ, the protein stability index was 2.99.
Work on FQRAMHDFNQAEMKQRDNCKIRIQ yielded a protein stability index of 2.52.
FQRAMHDINQAEMKQRDNCKIRIQ showed a protein stability index of 3.08.
With FQRAMHDYNQAEMKQRDNCFIRIQ the protein stability index was 1.69.
In the case of FQRAMHDYNQAEMKQRDNCYIRIQ, the protein stability index is reported as 1.41.
FQRAMHDYNQAEMKQRDNCTIRIQ gave a protein stability index of 2.47.
FQRAMHDYNQAEMKQRDNCAIRIQ gave a protein stability index of 2.32.
For FQRAMHDYNQAEMKQRDNCSIRIQ, the protein stability index was 3.15.
For FQRAMHDYNQAEMKQRDNCIIRIQ, the protein stability index was 1.3.
FQRAMHDYNQAEMKQRLNCKIRIQ showed a protein stability index of 2.1.
For FQRAMHDYNQAEMKQRQNCKIRIQ, the protein stability index was 2.63.

Variants of: B2
Test: as above
Conditions: c terminus: a fixed tail appended
For AWVQGDIFRSKLKNRPSSEGSINK, the protein stability index was 3.37.
Variant SWVQGDIFRSKLKNRPSSEGSINK has a protein stability index of 4.05.
Work on NWVQGDIFRSKLKNRPSSEGSINK yielded a protein stability index of 4.3.
With EWVQGDIFRSKLKNRPSSEGSINK the protein stability index was 4.43.
FWVQGDIFRSKLKNRPSSEGSINK gave a protein stability index of 1.75.
With HWVQGDIFRSKLKNRPSSEGSINK the protein stability index was 3.37.
Variant PWVQGDIFRSKLKNRPSSEGSINK has a protein stability index of 3.75.
Variant QWVQGDIFRSKLKNRPSSEGSINK has a protein stability index of 2.79.
With RWVQGDIFRSKLKNRPSSEGSINK the protein stability index was 4.17.
In the case of IWVQGDIFRSKLKNRPSSEGSINK, the protein stability index is reported as 2.17.
Variant DWVQGDIFRSKLKNRPSSEGSINK has a protein stability index of 4.57.
In the case of MWVQGDIFRSKLKNRPSSEGSINK, the protein stability index is reported as 2.79.
CWVQGDIFRSKLKNRPSSEGSINK gave a protein stability index of 3.69.
In the case of VWVQGDIFRSKLKNRPSSEGSINK, the protein stability index is reported as 2.2.
In the case of GWVQGDIFRSKLKNRPSSEGSINK, the protein stability index is reported as 3.03.
With KWVQGDIFRSKLKNRPSSEGSINK the protein stability index was 3.49.
Variant TWVQGDIFRSKLKNRPSSEGSINK has a protein stability index of 4.24.
Variant WWVQGDIFRSKLKNRPSSEGSINK has a protein stability index of 2.3.
YWVQGDIFRSKLKNRPSSEGSINK showed a protein stability index of 2.43.
LFVQGDIFRSKLKNRPSSEGSINK showed a protein stability index of 3.07.
With LNVQGDIFRSKLKNRPSSEGSINK the protein stability index was 4.07.
LCVQGDIFRSKLKNRPSSEGSINK showed a protein stability index of 3.8.
Work on LIVQGDIFRSKLKNRPSSEGSINK yielded a protein stability index of 2.51.
Variant LHVQGDIFRSKLKNRPSSEGSINK has a protein stability index of 3.81.
With LDVQGDIFRSKLKNRPSSEGSINK the protein stability index was 4.4.
Work on LMVQGDIFRSKLKNRPSSEGSINK yielded a protein stability index of 3.48.
Work on LGVQGDIFRSKLKNRPSSEGSINK yielded a protein stability index of 4.04.
With LAVQGDIFRSKLKNRPSSEGSINK the protein stability index was 4.05.
LPVQGDIFRSKLKNRPSSEGSINK showed a protein stability index of 4.26.
With LEVQGDIFRSKLKNRPSSEGSINK the protein stability index was 5.28.
LQVQGDIFRSKLKNRPSSEGSINK gave a protein stability index of 4.28.
With LKVQGDIFRSKLKNRPSSEGSINK the protein stability index was 3.74.
Work on LLVQGDIFRSKLKNRPSSEGSINK yielded a protein stability index of 2.98.

— the supplement of paper PMC10567573
